B1: E3 ubiquitin-protein ligase SH3RF1 (Homo sapiens), Q7Z6J0 (parent)
chain: MDESALLDLLECPVCLERLDASAKVLPCQHTFCKRCLLGIVGSRNELRCPECRTLVGSGVEELPSNILLVRLLDGIKQRPWKPGPGGGSGTNCTNALRSQSSTVANCSSKDLQSSQGGQQPRVQSWSPPVRGIPQLPCAKALYNYEGKEPGDLKFSKGDIIILRRQVDENWYHGEVNGIHGFFPTNFVQIIKPLPQPPPQCKALYDFEVKDKEADKDCLPFAKDDVLTVIRRVDENWAEGMLADKIGIFPISYVEFNSAAKQLIEWDKPPVPGVDAGECSSAAAQSSTAPKHSDTKKNTKKRHSFTSLTMANKSSQASQNRHSMEISPPVLISSSNPTAAARISELSGLSCSAPSQVHISTTGLIVTPPPSSPVTTGPSFTFPSDVPYQAALGTLNPPLPPPPLLAATVLASTPPGATAAAAAAGMGPRPMAGSTDQIAHLRPQTRPSVYVAIYPYTPRKEDELELRKGEMFLVFERCQDGWFKGTSMHTSKIGVFPGNYVAPVTRAVTNASQAKVPMSTAGQTSRGVTMVSPSTAGGPAQKLQGNGVAGSPSVVPAAVVSAAHIQTSPQAKVLLHMTGQMTVNQARNAVRTVAAHNQERPTAAVTPIQVQNAAGLSPASVGLSHHSLASPQPAPLMPGSATHTAAISISRASAPLACAAAAPLTSPSITSASLEAEPSGRIVTVLPGLPTSPDSASSACGNSSATKPDKDSKKEKKGLLKLLSGASTKRKPRVSPPASPTLEVELGSAELPLQGAVGPELPPGGGHGRAGSCPVDGDGPVTTAVAGAALAQDAFHRKASSLDSAVPIAPPPRQACSSLGPVLNESRPVVCERHRVVVSYPPQSEAELELKEGDIVFVHKKREDGWFKGTLQRNGKTGLFPGSFVENI
partner: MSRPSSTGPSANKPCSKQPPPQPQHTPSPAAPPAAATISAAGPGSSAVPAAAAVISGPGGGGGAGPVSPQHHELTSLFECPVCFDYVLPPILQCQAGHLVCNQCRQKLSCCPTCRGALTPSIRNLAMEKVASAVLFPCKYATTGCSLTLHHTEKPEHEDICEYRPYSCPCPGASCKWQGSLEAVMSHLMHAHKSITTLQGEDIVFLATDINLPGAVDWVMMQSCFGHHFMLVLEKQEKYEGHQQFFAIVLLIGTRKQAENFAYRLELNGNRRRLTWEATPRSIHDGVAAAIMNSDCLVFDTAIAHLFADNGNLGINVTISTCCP

Variants of: B1
Conditions: with siah2_human SIAH2, O43255

| Variant | effect of a mutation on the interaction |
| --- | --- |
| V605N;P607N | disrupting interaction |

Source: IntAct's records for PubMed 21586138
